Values of other authors, collected in PMC7866199.

How the values were obtained:
[1] = target: NPT2A C-terminal 22 aa (Homo sapiens) (UniProt Q06495)
[2] = target: GRK6A C-terminal PDZ ligand (Homo sapiens) (UniProt P43250)
Chain of UniProt P43250 (P43250 555-576): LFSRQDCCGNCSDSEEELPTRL

Chain of UniProt Q06495 (Q06495 618-639): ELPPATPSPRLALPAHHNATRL

For NHERF1 (from UniProt O14745), the Kd [1] is listed as 4 µM and the Kd [2] is listed as 4 µM.
